Test results as given in article PMC10022506 (Journal of Agricultural and Food Chemistry, 2023).

Key:
EcYfaU = molecular target: T1, EcYfaU (Escherichia coli, UniProt P76469); test: aldol condensation, HPLC; type: biochemical; details: co-substrate pyruvate; substrate inhibition at high concentration
T1 sequence (P76469 1-267): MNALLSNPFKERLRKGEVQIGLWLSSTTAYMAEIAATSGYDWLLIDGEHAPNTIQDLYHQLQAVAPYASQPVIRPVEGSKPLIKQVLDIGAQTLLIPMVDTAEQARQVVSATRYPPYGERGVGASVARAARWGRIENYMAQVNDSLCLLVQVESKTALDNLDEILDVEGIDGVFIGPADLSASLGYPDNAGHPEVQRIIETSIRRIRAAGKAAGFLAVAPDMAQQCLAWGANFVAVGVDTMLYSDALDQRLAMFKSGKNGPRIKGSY

C=O = test: purified protein; details: apparent, 100 mM pyruvate, 1 mM Mg2+, 50 mM CHES pH 9.0, 45 °C

| Molecule | aldol condensation, HPLC (EcYfaU) | Km (C=O) [mM] | kcat (C=O) [s⁻¹] | kcat/Km (C=O) [M⁻¹ s⁻¹] |
| --- | --- | --- | --- | --- |
| C=O [formaldehyde] | we measured the activity of EcYfaU at different substrate concentrations (Figure S7) |  |  |  |
| PaADL (Pseudomonas aeruginosa; L241A) |  | 65 ± 5.9 | 7.2 | 110 |
| PaADL (Pseudomonas aeruginosa; L241A/V121A) |  | 35 ± 4.4 | 6.63 | 183 |
| PaADL (Pseudomonas aeruginosa; V121A) |  | 35 ± 4.9 | 5.8 | 167 |
